“Also recorded” adds a separate entry of the source.
B1: 95 (protein, listed as Pseudomonas fluorescens)
chain: MAKKPRIDMHSHFFPRISEQEAAKFDANHAPWLQVSAKGDTGSIMMGKNNFRPVYQALWDPAFRIEEMDAQGVDVQVTCATPVMFGYTWEANKAAQWAERMNDFALEFAAHNPQRIKVLAQVPLQDLDLACKEASRAVAAGHLGIQIGNHLGDKDLDDATLEAFLTHCANEDIPILVHPWDMMGGQRMKKWMLPWLVAMPAETQLAILSLILSGAFERIPKSLKICFGHGGGSFAFLLGRVDNAWRHRDIVREDCPRPPSEYVDRFFVDSAVFNPGALELLVSVMGEDRVMLGSDYPFPLGEQKIGGLVLSSNLGESAKDKIISGNASKFFNINV
B2: 115 (protein)
chain: MAQGKVALEEHFAIPDTLTTYTTSGDYEKELKHRLLDIQDTRLKLMDAHGIETMILSLNAPGVQAIPDRRKAIEIARRANDVLAEECAKRPDRFLAFAALPLQDPDAATEELQRCVNDLGFVGALVNGFSQEGDGQTPLYYDLPQYRPFWGEVEKLDVPFYLHPRNPLPQDSRIYDGHPWLLGPTWAFAQETAVHALRLMASGLFDEHPRLNIILGHMGEGLPYMMWRIDHRNAWVKTPPRYPAKRRFMDYFNENFHITTSGNFRTQTLIDAILEIGADRILFSTDWPFENIDHASDWFNATSIAEADRVKIGRTNARRLFKLDGA
modifications: Dicamba decarboxylase variant clone DC.4.161
B3: 100 (protein, listed as Reinekea blandensis)
chain: MAIIDCHGHYTTTPKGVEDYRNAQKAAVAKDPSFKGEKGQVVVSDDEIRESIENNQLKMQRERGTDLTIFSPRASWMGHHIGNEYTSQFWTEHQNDLIRRVCDLFPKNFAPVAQLPQSPGVDPAKSVPEIVRTVEQMGFIGINLNPDPSGGYWKDTSLADRAFYPIYEKMVEYDIPAMIHVSAACNDCFHTTGSHYLGADTTGFQQLIMSDVFKDFPSLKIIIPHGGGAVPYHWGRFRGLMQDQGYAPLEESALKNIYFDTCVYHQRGIDLLLDIVPTQNILFASEMIGAVRGIDPETGHNFDDTKRYIDNNTALNAEEKAMIFEGNARRVFSRLKTD
B4: 32 (protein)
chain: MARIIAIEEHFLDLDIARASRPEAERLSPAFAAAYGAGQGYNYSPAPEVLLDLEEGRVADMDAHGISMQVLSSLSTQQLPADVAVELVRKVNDRAAAAVAARPDRFAAFAALPTTVPEAAADELDRAVGELGFVGSMINGRTGDAFLDAPRFDAVLRRSAELRVPVYLHPGVPPVETSRSNYEGGLDPIVTARLQTSAWGWHVETGIHFLHLVLAGVFDRYPDLQVILGHWGEMVPFFLERIEEALPQQITHLDRPVGAYFRENAHITPSGMFSQAQLQFCVETVGIERIMFSVDYPFLGNDGAEAFLRQANLPPLATEKIAHLNAERLLALPS
modifications: Streptomyces violaceusniger
B5: 108 (protein, listed as Staphylococcus aureus)
chain: MAKSITFEEHYVIEDIQKETMNAISADPKGVPMKVMLEGLEKKTGFTNADELSHHDERIQFMNNQDVQIQVLSYGNGSPSNLVGQKAIELCQKANDQLANYIAQYPNRFVGFATLPINEPEAAAREFERCINDLGFKGALIMGRAQDGFLDQDKYDIIFKTAENLDVPIYLHPAPVNSDIYQSYYKGNYPEVTAATFACFGYGWHIDVGIHAIHLVLSGIFDRYPKLNMIIGHWGEFIPFFLERMDEALFAEHLNHSVSYYFKNSFYITPSGMLTKPQFDLVKKEVGIDRILYAADYPYIEPEKLGVFLDELGLTDEEKEKISYTNGAKLLGLSSNN
B6: 41 (protein, listed as Polaromonas sp.)
chain: MANGKIALEEHFATEETLMDSAGFVPDKDWPELRSRLLDIQDRRVRLMDEHGIETMILSLNAPAVQAIADSTRANETARRANDFLAEQVAKQPTRFRGFAALPMQDPELAARELERCVKELGFVGALVNGFSQDNRSAVPLYYDMAQYWPFWETVQALDVPFYLHPRNPLPSDARIYDGHAWLLGPTWAFGQETAVHALRLMGSGLFDKYPALKIILGHMGEGLPYSMWRIDHRNAWIKTTPKYPAKRKIVDYFNENFYLTTSGNFRTQTLIDAILEIGADRILFSTDWPFENIDHAADWFENTSISEADRKKIGWGNAQNLFKLNR
B7: 114 (protein)
chain: MAQGKVALEEHFAIPETLQDSAGAVPGDYWKELQHRLLDIQDTRLKLMDAHGIETMILSLNAPAVQAIPDRRKAIEIARRANDVLAEECAKRPDRFLAFAALPLQDPDAATEELQRCVNDLGFVGALVNGFSQEGDGQTPLYYDLPQYRPFWGEVEKLDVPFYLHPRNPLPQDSRIYDGHPWLLGPTWAFAQETAVHALRLMASGLFDEHPRLNIILGHMGEGLPYMMWRIDHRVAWVKLPPRYPAKRRFMDYFNENFHITTSGNFRTQTLIDAILEIGADRILFSTDWPFENIDHASDWFNATSIAEADRVKIGRTNARRLFKLDGA
modifications: Dicamba decarboxylase variant clone DC.4.116
B8: 116 (protein)
chain: MAQGKVALEEHFAIPETLQDAAGFVPGDYWKELQHRLLDIQDRRVRLMDEHGIETMILSLNAPAVQAIADSTRANETARRANDFLAEQVAKQPTRFRGFAALPMQDPELAARELERCVKELGFVGALVNGFSQDNRSAVPLYYDMAQYWPFWETVQALDVPFYLHPRNPLPSDARIYDGHAWLLGPTWAFGQETAVHALRLMGSGLFDKYPALKIILGHMGEGLPYSMWRIDHRNAWIKTTPKYPAKRKIVDYFNENFYLTTSGNFRTQTLIDAILEIGADRILFSTDWPFENIDHAADWFENTSISEADRKKIGWGNAQNLFKLNR
modifications: Dicamba decarboxylase variant clone DC.30.007

Tests used:
[1] = Dicamba decarboxylation activity of computationally designed protein variants and parents (Tables 4, 5); details: for dicamba decarboxylase activity (statement in the description): native proteins and designed variants, assay not specified; for Percent Activity Improvement Over Parent (%): parent (SEQ ID NO: 1 or SEQ ID NO: 41) = 100
[2] = 14C assay: 14CO2 capture from [14C]-carboxyl-labeled dicamba with IPTG-induced recombinant E. coli cells; details: for Dicamba Decarboxylase Activity: IPTG-induced recombinant E. coli cells, 14CO2 from [14C]-carboxyl-labeled dicamba; for Enzymatic Detection level: dicamba decarboxylation activity; for decarboxylation activity of dicamba: among the 108 sequences tested, recombinant E. coli cell assay
[3] = LC-MS/MS detection of 4-chloro-3-methoxy phenol; format: biochemical; details: purified protein, dicamba
Experimental: The decarboxylated and chloro hydrolyzed product, 4-chloro-3-methoxy phenol (FIG. 1D), is measured using a LC-MS/MS analytical procedure. […] 10 ul is removed from the reaction mixture and mixed with 90 ul pre-chilled methanol followed by centrifugation at 14,000 rpm for 15 min at 4° C. 10 ul of the supernatant is then transferred into 170 ul ddH2O to achieve 5% methanol solution for injection. 50 ul of the prepared sample is injected into a 4000 Q Trap LC-MS/MS system for sample analysis. LC-MS/MS parameters are: Mobile Phase A, 2 mM ammonium acetate in water; Mobile Phase B, 2 mM ammonium acetate in methanol; Column, Aquasil, 100×2.1 mm, 3 μm, C18 column; Flow Rate, 0.6 ml/min. The MS/MS fragment 157/142 which is common to 4-chloro-3-methoxy phenol, 2-chloro-5-methoxy phenol, and 3-chloro-5-methoxy phenol is monitored at a retention time of 2.88 min.

[4] = 14C assay: 14CO2 capture from [14C]-carboxyl-labeled dicamba with purified protein; format: biochemical
[5] = GC/MS detection of 2,5-dichloro phenol (2,5-DCP); kinetic determination; format: biochemical; details: purified protein, dicamba
Experimental: The decarboxylated and demethylated product of dicamba, 2,5-dichloro phenol or 2,5-DCP (FIG. 1E) is measured using a GC/MS analytical procedure with either liquid injection after liquid/liquid extraction using toluene as the extraction solvent or gas injection using head space method. The head space sample analysis is carried out on an Agilent GC/MS system with a 6890A GC, a 5973N MSD and a CTC CombiPAL auto-sampler or with a 7890A GC, a 5975C MSD and an Agilent GC Sampler 80 auto-sampler with Phenomenex ZB-MultiResidue-1 column (30 m length, 0.25 mm diameter, 0.25 um film) or equivalent. GC/MS parameters are: GC inlet temperature, 200° C.; Carry gas, helium in constant flow mode (1.2 mL/min); Oven temperature program, 70° C. for 1 min and then ramp to 275° C. at 40° C./min. […] The reaction vial is transferred to a agitator for incubation at 90° C. for 4 min at 500 rpm. With a syringe preheated at 110° C., 1000 uL of head space is injected with sample fill speed at 100 uL/sec. A 2-mm diameter liner is used in sample inlet. The MS data acquisition is done in SIM (selected ion monitoring) mode. The positive ion at M/Z 162 for the molecular ion of 2,-5-DCP is monitored at retention time of 4.06 min. Solvent delay for MS acquisition is set at 3 min. GC/MS parameters for liquid sample analysis are the same as those for head space analysis, except that the volume of liquid injection is 1 uL.

Row | Molecule | dicamba decarboxylase activity (statement in the description) [1] | Dicamba Decarboxylase Activity [2] | Enzymatic Detection level [2] | 4-chloro-3-methoxy phenol product detected [3] | CO2 product detected [4] | 2,5-DCP product detected [5] | decarboxylation activity of dicamba [2] | Percent Activity Improvement Over Parent (%) [1]
1 | B1 | not active for dicamba decarboxylation; also recorded: Neither of the native proteins have dicamba decarboxylase activity | No | No |  |  |  |  | 
2 | B2 | displays an increase in dicamba decarboxylase activity |  | High | detected | detected | detected |  | 
3 | B3 | Neither of the native proteins have dicamba decarboxylase activity | No | No |  |  |  |  | 
4 | B4 |  | High | High | detected | detected | detected | showed decarboxylation activity of dicamba | 
5 | B5 |  | High | High | detected | detected | detected | showed decarboxylation activity of dicamba | 
6 | B6 | natural activity; also recorded: native dicamba decarboxylase activity | High | High | detected | detected | detected | showed decarboxylation activity of dicamba | 100%
7 | B7 | displays an increase in dicamba decarboxylase activity |  | High | detected | detected | detected |  | 
8 | B8 | improved dicamba decarboxylase activity; also recorded: displays an increase in dicamba decarboxylase activity |  | High | detected | detected | detected |  | 220%

Reference: patent US20140289906A1, “Compositions Having Dicamba Decarboxylase Activity and Methods of Use” (priority 2013, published 2014)
